This data set concerns HEK293T. As to the kind of experiment: plasma membrane surface immunostaining intensity (anti-HA, deep receptor scanning) (arbitrary fluorescence units); higher = higher plasma membrane expression.

± gives the uncertainty stated by the source.

The values below come from the supplement of paper PMC12458215.

“MLPDWKSSLILMAYIIIFLTGLPANLLALRAFVGRIRQPQPAPVHILLLSLTLADLLLLLLLPFKIIEAASNFRWYLPKVVCALTSFGFYSSIYCSTWLLAGISIERYLGVAFPVQYKLSRRPLYGVIAALVAWVMSFGHCTIVIIVQYLNTTEQVRSGNEITCYENFTDNQLDVVLPVRLELCLVLFFIPMAVTIFCYWRFVWIMLSQPLVGAQRRRRAVGLAVVTLLNFLVCFGPYNVSHLVGYHQRKSPWWRSIAVVFSSLNASLDPLLFYFSSSVVRRAFGRGLQVLRNQGSSLLGRRGKDTAEGTNEDRGVGQGEGMPSSDFTTE [FFAR2]”: the “plasma membrane surface immunostaining intensity” value (GPCR class: A) is 3600 ± 470.
Consider “MLRLFYFSAIIASVILNFVGIIMNLFITVVNCKTWVKSHRISSSDRILFSLGITRFLMLGLFLVNTIYFVSSNTERSVYLSAFFVLCFMFLDSSSVWFVTLLNILYCVKITNFQHSVFLLLKRNISPKIPRLLLACVLISAFTTCLYITLSQASPFPELVTTRNNTSFNISEGILSLVVSLVLSSSLQFIINVTSASLLIHSLRRHIQKMQKNATGFWNPQTEAHVGAMKLMVYFLILYIPYSVATLVQYLPFYAGMDMGTKSICLIFATLYSPGHSVLIIITHPKLKTTAKKILCFKK [TAS2R4]”, for which the “plasma membrane surface immunostaining intensity” value (GPCR class: Taste) stood at 139 ± 19.
“MLRNGSIVTEFILVGFQQSSTSTRALLFALFLALYSLTMAMNGLIIFITSWTDPKLNSPMYFFLGHLSLLDVCFITTTIPQMLIHLVVRDHIVSFVCCMTQMYFVFCVGVAECILLAFMAYDRYVAICYPLNYVPIISQKVCVRLVGTAWFFGLINGIFLEYISFREPFRRDNHIESFFCEAPIVIGLSCGDPQFSLWAIFADAIVVILSPMVLTVTSYVHILATILSKASSSGRGKTFSTCASHLTVVIFLYTSAMFSYMNPHSTHGPDKDKPFSLLYTIITPMCNPIIYSFRNKEIKEAMVRALGRTRLAQPQSV [OR10AD1]”: the “plasma membrane surface immunostaining intensity” value (GPCR class: A (Olfactory)) amounted to 326 ± 140.
“MLSAGLGLLMLVAVVEFLIGLIGNGSLVVWSFREWIRKFNWSSYNLIILGLAGCRFLLQWLIILDLSLFPLFQSSRWLRYLSIFWVLVSQASLWFATFLSVFYCKKITTFDRPAYLWLKQRAYNLSLWCLLGYFIINLLLTVQIGLTFYHPPQGNSSIRYPFESWQYLYAFQLNSGSYLPLVVFLVSSGMLIVSLYTHHKKMKVHSAGRRDVRAKAHITALKSLGCFLLLHLVYIMASPFSITSKTYPPDLTSVFIWETLMAAYPSLHSLILIMGIPRVKQTCQKILWKTVCARRCWGP [TAS2R5]”: the “plasma membrane surface immunostaining intensity” value (GPCR class: Taste) came out at 123 ± 18.
As to “MLSTSRSRFIRNTNESGEEVTTFFDYDYGAPCHKFDVKQIGAQLLPPLYSLVFIFGFVGNMLVVLILINCKKLKCLTDIYLLNLAISDLLFLITLPLWAHSAANEWVFGNAMCKLFTGLYHIGYFGGIFFIILLTIDRYLAIVHAVFALKARTVTFGVVTSVITWLVAVFASVPGIIFTKCQKEDSVYVCGPYFPRGWNNFHTIMRNILGLVLPLLIMVICYSGILKTLLRCRNEKKRHRAVRVIFTIMIVYFLFWTPYNIVILLNTFQEFFGLSNCESTSQLDQATQVTETLGMTHCCINPIIYAFVGEKFRSLFHIALGCRIAPLQKPVCGGPGVRPGKNVKVTTQGLLDGRGKGKSIGRAPEASLQDKEGA [CCR2]”, for the setting “GPCR class: A”, the “plasma membrane surface immunostaining intensity” value turned out to be 137 ± 20.
On to “MLTLTRIRTVSYEVRSTFLFISVLEFAVGFLTNAFVFLVNFWDVVKRQALSNSDCVLLCLSISRLFLHGLLFLSAIQLTHFQKLSEPLNHSYQAIIMLWMIANQANLWLAACLSLLYCSKLIRFSHTFLICLASWVSRKISQMLLGIILCSCICTVLCVWCFFSRPHFTVTTVLFMNNNTRLNWQIKDLNLFYSFLFCYLWSVPPFLLFLVSSGMLTVSLGRHMRTMKVYTRNSRDPSLEAHIKALKSLVSFFCFFVISSCAAFISVPLLILWRDKIGVMVCVGIMAACPSGHAAILISGNAKLRRAVMTILLWAQSSLKVRADHKADSRTLC [TAS2R38]”, for which the “plasma membrane surface immunostaining intensity” value (GPCR class: Taste) is 123 ± 18.
On the same count and under the same terms, under “MMCFLLIISSILVVFAFVLGNVANGFIALVNVIDWVNTRKISSAEQILTALVVSRIGLLWVMLFLWYATVFNSALYGLEVRIVASNAWAVTNHFSMWLAASLSIFCLLKIANFSNLISLHLKKRIKSVVLVILLGPLVFLICNLAVITMDERVWTKEYEGNVTWKIKLRNAIHLSSLTVTTLANLIPFTLSLICFLLLICSLCKHLKKMRLHSKGSQDPSTKVHIKALQTVTSFLMLFAIYFLCIITSTWNLRTQQSKLVLLLCQTVAIMYPSFHSFILIMGSRKLKQTFLSVLWQMTR [TAS2R19]” stands 370 ± 230; under “MMGLTEGVFLILSGTQFTLGILVNCFIELVNGSSWFKTKRMSLSDFIITTLALLRIILLCIILTDSFLIEFSPNTHDSGIIMQIIDVSWTFTNHLSIWLATCLGVLYCLKIASFSHPTFLWLKWRVSRVMVWMLLGALLLSCGSTASLINEFKLYSVFRGIEATRNVTEHFRKKRSEYYLIHVLGTLWYLPPLIVSLASYSLLIFSLGRHTRQMLQNGTSSRDPTTEAHKRAIRIILSFFFLFLLYFLAFLIASFGNFLPKTKMAKMIGEVMTMFYPAGHSFILILGNSKLKQTFVVMLRCESGHLKPGSKGPIFS [TAS2R3]”, 135 ± 22.
“MMIKKNASSEDFFILLGFSNWPQLEVVLFVVILIFYLMTLTGNLFIIILSYVDSHLHTPMYFFLSNLSFLDLCHTTSSIPQLLVNLRGPEKTISYAGCMVQLYFVLALGIAECVLLVVMSYDRYVAVCRPLHYTVLMHPRFCHLLAAASWVIGFTISALHSSFTFWVPLCGHRLVDHFFCEVPALLRLSCVDTHANELTLMVMSSIFVLIPLILILTAYGAIARAVLSMQSTTGLQKVFRTCGAHLMVVSLFFIPVMCMYLQPPSENSPDQGKFIALFYTVVTPSLNPLIYTLRNKHVKGAAKRLLGWEWGK [OR2J2]”: the “plasma membrane surface immunostaining intensity” value (GPCR class: A (Olfactory)) was determined as 82.9 ± 16.
As for “MNATGTPVAPESCQQLAAGGHSRLIVLHYNHSGRLAGRGGPEDGGLGALRGLSVAASCLVVLENLLVLAAITSHMRSRRWVYYCLVNITLSDLLTGAAYLANVLLSGARTFRLAPAQWFLREGLLFTALAASTFSLLFTAGERFATMVRPVAESGATKTSRVYGFIGLCWLLAALLGMLPLLGWNCLCAFDRCSSLLPLYSKRYILFCLVIFAGVLATIMGLYGAIFRLVQASGQKAPRPAARRKARRLLKTVLMILLAFLVCWGPLFGLLLADVFGSNLWAQEYLRGMDWILALAVLNSAVNPIIYSFRSREVCRAVLSFLCCGCLRLGMRGPGDCLARAVEAHSGASTTDSSLRPRDSFRGSRSLSFRMREPLSSISSVRSI [S1PR4]”, the “plasma membrane surface immunostaining intensity” value (GPCR class: A) worked out at 6452 ± 53.
As for “MNDDGKVNASSEGYFILVGFSNWPHLEVVIFVVVLIFYLMTLIGNLFIIILSYLDSHLHTPMYFFLSNLSFLDLCYTTSSIPQLLVNLWGPEKTISYAGCMIQLYFVLALGTTECVLLVVMSYDRYAAVCRPLHYTVLMHPRFCHLLAVASWVSGFTNSALHSSFTFWVPLCGHRQVDHFFCEVPALLRLSCVDTHVNELTLMITSSIFVLIPLILILTSYGAIVRAVLRMQSTTGLQKVFGTCGAHLMAVSLFFIPAMCIYLQPPSGNSQDQGKFIALFYTVVTPSLNPLIYTLRNKVVRGAVKRLMGWE [OR2J3]”, the “plasma membrane surface immunostaining intensity” value (GPCR class: A (Olfactory)) stood at 184 ± 45.
“MNECHYDKHMDFFYNRSNTDTVDDWTGTKLVIVLCVGTFFCLFIFFSNSLVIAAVIKNRKFHFPFYYLLANLAAADFFAGIAYVFLMFNTGPVSKTLTVNRWFLRQGLLDSSLTASLTNLLVIAVERHMSIMRMRVHSNLTKKRVTLLILLVWAIAIFMGAVPTLGWNCLCNISACSSLAPIYSRSYLVFWTVSNLMAFLIMVVVYLRIYVYVKRKTNVLSPHTSGSISRRRTPMKLMKTVMTVLGAFVVCWTPGLVVLLLDGLNCRQCGVQHVKRWFLLLALLNSVVNPIIYSYKDEDMYGTMKKMICCFSQENPERRPSRIPSTVLSRSDTGSQYIEDSISQGAVCNKSTS [LPAR3]”: for the setting “GPCR class: A”, the “plasma membrane surface immunostaining intensity” value is 5905 ± 32.
For the sequence “MNEDLKVNLSGLPRDYLDAAAAENISAAVSSRVPAVEPEPELVVNPWDIVLCTSGTLISCENAIVVLIIFHNPSLRAPMFLLIGSLALADLLAGIGLITNFVFAYLLQSEATKLVTIGLIVASFSASVCSLLAITVDRYLSLYYALTYHSERTVTFTYVMLVMLWGTSICLGLLPVMGWNCLRDESTCSVVRPLTKNNAAILSVSFLFMFALMLQLYIQICKIVMRHAHQIALQHHFLATSHYVTTRKGVSTLAIILGTFAACWMPFTLYSLIADYTYPSIYTYATLLPATYNSIINPVIYAFRNQEIQKALCLICCGCIPSSLAQRARSPSDV [GPR12]”, the “plasma membrane surface immunostaining intensity” value (GPCR class: A) worked out at 1260 ± 200.
Turning to “MNGDHMVLGSSVTDKKAIILVTILLLLRLVAIAGNGFITAALGVEWVLRRMLLPCDKLLVSLGASRFCLQSVVMGKTIYVFLHPMAFPYNPVLQFLAFQWDFLNAATLWSSTWLSVFYCVKIATFTHPVFFWLKHKLSGWLPWMLFSSVGLSSFTTILFFIGNHRMYQNYLRNHLQPWNVTGDSIRSYCEKFYLFPLKMITWTMPTAVFFICMILLITSLGRHRKKALLTTSGFREPSVQAHIKALLALLSFAMLFISYFLSLVFSAAGIFPPLDFKFWVWESVIYLCAAVHPIILLFSNCRLRAVLKSRRSSRCGTP [TAS2R60]”, under “GPCR class: Taste”, the “plasma membrane surface immunostaining intensity” value stood at 137 ± 36.
For “MNPDLDTGHNTSAPAHWGELKNANFTGPNQTSSNSTLPQLDITRAISVGLVLGAFILFAIVGNILVILSVACNRHLRTPTNYFIVNLAMADLLLSFTVLPFSAALEVLGYWVLGRIFCDIWAAVDVLCCTASILSLCAISIDRYIGVRYSLQYPTLVTRRKAILALLSVWVLSTVISIGPLLGWKEPAPNDDKECGVTEEPFYALFSSLGSFYIPLAVILVMYCRVYIVAKRTTKNLEAGVMKEMSNSKELTLRIHSKNFHEDTLSSTKAKGHNPRSSIAVKLFKFSREKKAAKTLGIVVGMFILCWLPFFIALPLGSLFSTLKPPDAVFKVVFWLGYFNSCLNPIIYPCSSKEFKRAFVRILGCQCRGRGRRRRRRRRRLGGCAYTYRPWTRGGSLERSQSRKDSLDDSGSCLSGSQRTLPSASPSPGYLGRGAPPPVELCAFPEWKAPGALLSLPAPEPPGRRGRHDSGPLFTFKLLTEPESPGTDGGASNGGCEAAADVANGQPGFKSNMPLAPGQF [ADRA1B]”, the “plasma membrane surface immunostaining intensity” value (GPCR class: A) was determined as 6200 ± 240.
Turning to “MNPENWTQVTSFVLLGFPSSHLIQFLVFLGLMVTYIVTATGKLLIIVLSWIDQRLHIQMYFFLRNFSFLELLLVTVVVPKMLVVILTGDHTISFVSCIIQSYLYFFLGTTDFFLLAVMSLDRYLAICRPLRYETLMNGHVCSQLVLASWLAGFLWVLCPTVLMASLPFCGPNGIDHFFRDSWPLLRLSCGDTHLLKLVAFMLSTLVLLGSLALTSVSYACILATVLRAPTAAERRKAFSTCASHLTVVVIIYGSSIFLYIRMSEAQSKLLNKGASVLSCIITPLLNPFIFTLRNDKVQQALREALGWPRLTAVMKLRVTSQRK [OR6T1]”, the “plasma membrane surface immunostaining intensity” value (GPCR class: A (Olfactory)) turned out to be 112 ± 19.
As for “MNPPSGPRVPPSPTQEPSCMATPAPPSWWDSSQSSISSLGRLPSISPTAPGTWAAAWVPLPTVDVPDHAHYTLGTVILLVGLTGMLGNLTVIYTFCRSRSLRTPANMFIINLAVSDFLMSFTQAPVFFTSSLYKQWLFGETGCEFYAFCGALFGISSMITLTAIALDRYLVITRPLATFGVASKRRAAFVLLGVWLYALAWSLPPFFGWSAYVPEGLLTSCSWDYMSFTPAVRAYTMLLCCFVFFLPLLIIIYCYIFIFRAIRETGRALQTFGACKGNGESLWQRQRLQSECKMAKIMLLVILLFVLSWAPYSAVALVAFAGYAHVLTPYMSSVPAVIAKASAIHNPIIYAITHPKYRVAIAQHLPCLGVLLGVSRRHSRPYPSYRSTHRSTLTSHTSNLSWISIRRRQESLGSESEVGWTHMEAAAVWGAAQQANGRSLYGQGLEDLEAKAPPRPQGHEAETPGKTKGLIPSQDPRM [OPN4]”, for the setting “GPCR class: A”, the “plasma membrane surface immunostaining intensity” value amounted to 519 ± 36.
